US20090111104A1, “Method for Monitoring Hydrolytic Activity” (Fluorotechnics Pty Limited, priority 2005, published 2009)

Biological target: T1, carbonic anhydrase (CA) (Bos taurus, UniProt P00921)
T1 construct: purchased Sigma-Aldrich C7025
Experiment: Real-time monitoring of tryptic digestion of carbonic anhydrase using epicocconone with and without SDS
Type: biochemical, bovine
Experimental: • 1 Trypsin digestion was carried out in bicine buffer (pH 8.4) • 2 Protein samples were prepared in 10 mg/mL in 100 mM bicine buffer. • 3 One hundred microliter of the protein sample was used for trypsin digestion.
• 4. The 100 μL of protein samples was reduced by adding 1 μL of 10% SDS and 5 μL of DTT stock for 10 min at 80° C. • 5. Another sample was reduced with only 5 μL of DTT stock for 10 min at 80° C. (no SDS) • 3 The samples were alkylated by adding 4 μL of the iodoacetamide stock at room temperature for 45 min-1 hr. • 4 The remaining iodoacetamide of the samples were neutralised by adding 20 μL of the DTT at room temp for 45 min-1 hr. […] Fluorescence development was monitored in real time every 2 minutes up to 400 minutes using FluoStar (Ex/Em=540±10/[…]±10). • 16. […]
Progress curves were fitted as per Example 6. […] In the presence of a non-denaturing quantity of detergent (open squares) carbonic anhydrase (CA) becomes more hydrophobic and has an increase in fluorescence when exposed to a fluorophore that is sensitive to its environment such as epicocconone. Upon addition of trypsin, the fluorescence drops as per Example 6 but in the sample with no SDS (inverted triangles) the change in fluorescence is reduced by more than 50% compared to in the presence of SDS (open circles). […]

T1 sequence (P00921 whole entry): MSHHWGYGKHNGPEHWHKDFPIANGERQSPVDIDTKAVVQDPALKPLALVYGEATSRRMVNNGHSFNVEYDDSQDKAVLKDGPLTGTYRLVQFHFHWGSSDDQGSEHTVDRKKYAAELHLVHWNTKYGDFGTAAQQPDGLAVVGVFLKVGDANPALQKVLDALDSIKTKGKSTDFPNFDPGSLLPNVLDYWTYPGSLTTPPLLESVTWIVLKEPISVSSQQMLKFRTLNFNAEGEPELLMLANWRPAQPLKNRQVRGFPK

B1: trypsin: Proteomics grade trypsin protease, Sigma-Aldrich T6567 (protein, UniProt P00761 9-231, looked up)
Trypsin: IVGGYTCAANSIPYQVSLNSGSHFCGGSLINSQWVVSAAHCYKSRIQVRLGEHNIDVLEGNEQFINAAKIITHPNFNGNTLDNDIMLIKLSSPATLNSRVATVSLPRSCAAAGTECLISGWGNTKSSGSSYPSLLQCLKAPVLSDSSCKSSYPGQITGNMICVGFLEGGKDSCQGDSGGPVVCNGQLQGIVSWGYGCAQKNKPGVYTKVCNYVNWIQQTIAAN
- observed rate constant (with SDS): 0.025 min⁻¹
- observed rate constant (without SDS): 0.025 min⁻¹
